Columns and labels:
[1] = molecular target: soluble hFcγRIIIa(F) (human) (UniProt P08637); assay: SPR, BIAcore 2000; shFcγRIIIa captured by anti-His antibody on CM5 chip; KA from the equilibrium value of the binding
[2] = molecular target: soluble hFcγRIIIa(V) (human) (UniProt P08637); assay: SPR, BIAcore 2000; end of the range tied to this antibody by Table 3 (0.48/0.28)
[3] = molecular target: soluble hFcγRIIIa(V) (human) (UniProt P08637); assay: SPR, BIAcore 2000; shFcγRIIIa captured by anti-His antibody on CM5 chip, antibody in flow (0.625 to 20 µg/ml)

Substance: Rituxan™ (antibody)
- Ka [1]: 2.8e+06 M⁻¹
- fold higher KA for shFcγRIIIa(V) than for shFcγRIIIa(F) [2]: 2 to 3 times
- Ka [3]: 4.8e+06 M⁻¹
- koff [3]: 0.0071 s⁻¹
- kon [3]: 34000 M⁻¹ s⁻¹
